We go through 6 sequences from US20150291952.

The series deals with CHK2 (UniProt O96017). As to the kind of experiment: EMSA. Conditions: SEQ:22 is the DNA template strand, RNA is its reverse complement. On the technique in general: Mobility shift assays separate free from complexed probe on a gel.
CHK2, sequence (O96017 whole entry): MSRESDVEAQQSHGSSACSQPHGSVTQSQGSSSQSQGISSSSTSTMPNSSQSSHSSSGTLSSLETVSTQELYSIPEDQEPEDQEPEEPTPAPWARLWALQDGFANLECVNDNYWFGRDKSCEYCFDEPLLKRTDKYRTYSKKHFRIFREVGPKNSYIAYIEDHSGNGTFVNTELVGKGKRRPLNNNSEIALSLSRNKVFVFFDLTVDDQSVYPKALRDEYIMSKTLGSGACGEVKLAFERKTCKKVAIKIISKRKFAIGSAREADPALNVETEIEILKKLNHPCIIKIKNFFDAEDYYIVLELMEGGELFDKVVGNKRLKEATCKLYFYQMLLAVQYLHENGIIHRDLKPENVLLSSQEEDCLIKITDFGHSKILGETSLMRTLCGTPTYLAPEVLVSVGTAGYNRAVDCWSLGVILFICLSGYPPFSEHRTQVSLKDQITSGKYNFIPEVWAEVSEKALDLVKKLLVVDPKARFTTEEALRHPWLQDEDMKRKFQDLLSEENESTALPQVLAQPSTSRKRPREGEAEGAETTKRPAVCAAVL

By Kd is commonly meant the constant that tells how readily two partners part at equilibrium. Consider “AAGCUUCGUCAAGUCUGCAGUGAANNNNNNNNNNNNNNNNNNNNNNNNNNNNNNNNNNNNNNNNNNNNNNNNNNNNNNNNNNNNNNNNNNNNNNGAAUUCGUAGAUGUGGAUCCAUUCCC [CHK2 SELEX Cycle 3 pool]”, for which the dissociation constant (Kd) (bulk pool, 69% bound, FP Kd 1.6-fold higher (FIG. 8)) worked out at 315 nM.

In the case of “AAGCUUCGUCAAGUCUGCAGUGAANNNNNNNNNNNNNNNNNNNNNNNNNNNNNNNNNNNNNNNNNNNNNNNNNNNNNNNNNNNNNNNNNNNNNNGAAUUCGUAGAUGUGGAUCCAUUCCC [N70 starting RNA library]”, for the setting “starting library, 59% bound at highest protein”, the Kd was > 1000 nM.

In the case of “AAGCUUCGUCAAGUCUGCAGUGAANNNNNNNNNNNNNNNNNNNNNNNNNNNNNNNNNNNNNNNNNNNNNNNNNNNNNNNNNNNNNNNNNNNNNNGAAUUCGUAGAUGUGGAUCCAUUCCC [CHK2 SELEX Cycle 6 pool]”, where the note is “bulk pool, 86% bound, FP Kd 1.6-fold higher (FIG. 8)”, the Kd amounted to 281 nM.

The sequence “AAGCUUCGUCAAGUCUGCAGUGAANNNNNNNNNNNNNNNNNNNNNNNNNNNNNNNNNNNNNNNNNNNNNNNNNNNNNNNNNNNNNNNNNNNNNNGAAUUCGUAGAUGUGGAUCCAUUCCC [CHK2 RAPID Cycle 4 pool]” yielded a Kd (bulk pool, 72% bound at highest protein) of 209 nM.

As to “AAGCUUCGUCAAGUCUGCAGUGAANNNNNNNNNNNNNNNNNNNNNNNNNNNNNNNNNNNNNNNNNNNNNNNNNNNNNNNNNNNNNNNNNNNNNNGAAUUCGUAGAUGUGGAUCCAUUCCC [CHK2 RAPID Cycle 2 pool]”, for the setting “bulk pool, 65% bound at highest protein”, the Kd was found to be 390 nM.

Turning to “AAGCUUCGUCAAGUCUGCAGUGAANNNNNNNNNNNNNNNNNNNNNNNNNNNNNNNNNNNNNNNNNNNNNNNNNNNNNNNNNNNNNNNNNNNNNNGAAUUCGUAGAUGUGGAUCCAUUCCC [CHK2 RAPID Cycle 6 pool]”, under “bulk pool, 87% bound at highest protein”, the Kd is 191 nM.
